Data on 15 sequences can be found in the DeepSol protein solubility set.

The data set in a line: soluble on expression in E. coli; label from the status in PepcDB or PDB records.
For the sequence “GPGSMVAPAQRTSVYVGDLPIDLPRPEEAINNLFSTVAPVVSVKVCRDMATQRSLGYGYVNFQTTADAEKVIDALNYTGIAPGRQIRVMFSIRDPLQRKSGMNNVFVKKLDTAINAKELQAAFSKCGRVLSCKVALDSAGNSKGYGFVQFETADGTKAALEMNGSKLGDSEVVVAPFVRRVDREAMAAKSFRNIYIKNITASATEADVKAIVEEFGKVDSLFLSEHARFPTKFALVAFEEHQAAVQAIAALNESEESGLTEKAVKLVVCRALSKSERDREKKKAASLYQNHGRNLYIKHLPDDITDDRLREIFEPFGKITSCAIMKEPNGTLKGFAFVCFEDKQHASAALRSLNGHPLEHSAKPLYVSHAEQKDMRIRLLQQRRAAMRHQSRMAPLMNTFPQQWPRHPFPHMVPPMMPPPPPPNMGMPQFMSGPMIRRPVMEPHLMQGEPMRPPNRYTQAREQYPPQQRQDGVDMNYLSTLSPEQQKNYLGELLYSRILPLESSNAAKITGMLLEMSREEIFEILADHFALLSKIQEANAVLQQHTGN”, the “soluble on expression in E. coli” value is recorded as “soluble”.

As to “MTKHPPNRRGISFEVGAQLEARDRLKNWYPAHIEDIDYEEGKVLIHFKRWNHRYDEWFCWDSPYLRPLEKIQLRKEGLHEEDGSSEFQINEQVLACWSDCRFYPAKVTAVNKDGTYTVKFYDGVVQTVKHIHVKAFSKDQNIVGNARPKETDHKSLSSSPDKREKFKEQRKATVNVKKDKEDKPLKTEKRPKQPDKEGKLICSEKGKVSEKSLPKNEKEDKENISENDREYSGDAQKKTSQTPFHSSYCCGFKLSNFATQLEHHHHHH”, the “soluble on expression in E. coli” value is “soluble”.

Regarding “MMINVHSYESMGTFDGPGLRLVVFLQGCNFRCLYCANPDTIAGKGGTPTPPEEIVRMAMSQRPFFGKRGGITFSGGEPTFQAKALVPLVRELKERGIHVCLDSNGGLWNEDVEELFKLTDLVLLDIKEFNPNRHQTLTGRSNEQTIRTAAWLEEQGKPFWLRYVLVPGYSDFEEDIRALGEALGKYKMIQRVEILPYHTLGVHKYEAMGQEYKMKGVKENTPEQLEKAAEVFKEYFTTVVVNLEHHHHHH”, the “soluble on expression in E. coli” value is reported as “soluble”.

Regarding “THILTLTSGFHLWSHTENSGKKSKIIAVHGGPGETHESFETLPLGVPNAEITSYDQLGSWYSDQPDFSDPKLAKKYLRIEYFVNELEEVRRQLEYDKFILLGYSWGAMIALEYALKYPGNLDKLVIVGMSDRESDFTDRMKDEVAKVLSKDEAKYVFTEAKKGELDDPLFNQFMEKFYNDYYSRFSKSQSKHAIDISNYQVANYMMGTNPFHTEGMMSGWNVSDKLYRIKTPTLILVGDQDMISPKKARVMADKLPNGKLEIIPDATHVSLRDNPEYFFQQLNQFLTN”, the “soluble on expression in E. coli” value is “not soluble”.

“MSLWPQMQYRQLQLAREKLLERLARKRNSTVITLIHRQESIGLFGIPVYRFISIEDSEEVLRAIRMAPKDKPIDLIIHTPGGLVLAATQIAKALKDHPAETRVIVPHYAMSGGTLIALAADKIIMDPHAVLGPVDPQLGQYPAPSIVRAVEKKGVDKVDDQTLILADVAEKAIRQVRDFIFNLLKDKYGEEKAKELAQVLTEGRWTHDYPITVEEAKKLGLNVSTDVPEEVYALMELYKQPIRQRGTVEFVPYPMKQEGKHEGHHHHHH”: the “soluble on expression in E. coli” value is recorded as “soluble”.

As for “SLVDLAADILVADAHMHTNPTRGLGAREVARRFRREGGWFAALLTLTTWSYGLAPTGVEAYRRMYEIHLRECRAAREEGLRVACFAGIHPAEVDRMIDKHRQPPEKALETALEAVEVLRRLCREGAIDGVGEVGRQHYRTSPLRVAIAEVVLEEAAAAALEEGCLLQLHLENEGPATVETVDRILRRAGATGARRGMVIFHHATLRVAKEAVARGYNATIPGVPKLLEHAAANEPPDYMVESDYLDDPARPGAVVEPWKMAQKLREIASRTPETREWVRRTNIDLVERVFQASPP”, the “soluble on expression in E. coli” value is “not soluble”.

On to “MGSDKIHHHHHHMAKVVTLTATNGETIQFVEEVKAQGGMKDVMFSPNRDYVVAFLRDPADNETKERLEMITGQYRKRIFNQEGGEYLKKLYCWPTAVVEYNGKLGVVSPFYRDCFFFQYGSRNSDMLGIQGKEKDGKWFASANNRNKFLAPEELGDWMLHLKVCLMLARAVRRMHMAGLSHSDLGYKNCLIDPTTGQACLIDIDGLVVPGKHPPTVVGTPDFIAPEVVATSHLDVKDPNRKLPSRTTDLHALAVLIYMYLLYRHPLRGDKVFDPNDPQRDEELGMGKQALFVEHPTDRSNRIKTENIRPSEHPWKDTEKMPYTLTGTYLSDLFKRAFIDGLHNPQARPTADEWEQALVKTVDLLQPCSNASCEQKWYAFDNSKHPKCPFCGTAHHGKLPVLNLYSGTPDGKFRPDNHRIMVYSNQSLFKWHADNRVFPNEKLRSEDAKRVGYFVQHNGNWWLVNEALPEIYDVKAKQAIPIGGKVKLDDGGQILLQKGIGGRLLMVQMAG”, for which the “soluble on expression in E. coli” value was “not soluble”.

Take “MKMMDANEIISFIQKSEKKTPVKVYIKGDLKEVTFPETVQAFVNKKSGVLFGEWSEIKTILDENSKYIVDYVVENDRRNSAIPMLDLKGIKARIEPGAIIRDHVEIGDNAVIMMNATINIGAVIGEGSMIDMNAVLGGRATVGKNCHVGAGAVLAGVIEPPSAKPVIVEDDVVIGANVVVLEGVTVGKGAVVAAGAVVTEDVPPYTVVAGTPARVIKEIDEKTKAKTEIKQELRQLNPEK”: the “soluble on expression in E. coli” value is on record as “not soluble”.

For “MNREGAPGKSPEEMYIQQKVRVLLMLRKMGSNLTASEEEFLRTYAGVVNSQLSQLPPHSIDQGAEDVVMAFSRSETEDRRQ”, the “soluble on expression in E. coli” value was “soluble”.

As to “MSLHAVDHHAILARFAPSRGGDGNIFRDIDPSRLAHIVVDMQNGFMEEGAPVEVPVARTIVDNINRISAAVRDAGGHNVFLRYTTPPEGGPSWSNFMVRMGREAQGHREAFTPGAHHWQLWPTLDVREADAIVDKHRFSGFTPGTCALKDVLDARGIDTVLITGTLTNCCCESTARDAMQHNYRVLMASDANAALSDEEHAATLHIMAMVFADLHSTQEVVDLLGSEGHHHHHH”, the “soluble on expression in E. coli” value was “soluble”.

Regarding “MGSDKIHHHHHHMILSKTGIRHKEDLVPPANGVDVGIIKIGDGRVMSVTTDPFYFDPVFGYEDSAWFAYHILASDLLTSGANPDYMTVDLNLPLSMTDEEISRMWNAFTEEAARFGTSIITGHTARYAGTSFPMIGGITAMGFIGEDEYVTSAMARPGDKVVLTKTPAIEAAALLTRLFPGTIKAKLGDELFSYGVDLFRKLTTVHESLVCKRFGLRTRVTAMHDVTEGGLLGALFEIADSSGNGIRIHEDSIKVDDYVKRVCSIFSIDPLMAISEGALLITVKPDHAEDLVSSLKANGIDANVIGEMTADPSERIIVGREKRTIGPPQKDPFWTAVEFGISEDWK”, the “soluble on expression in E. coli” value is “not soluble”.

“GKLDEFEAWMRTITKLDIVSLMDFNWGKGGLIKGEKVMNRLGDILGDLHIEDLSIPYTAVAADISNEKEVWLQKGSLLQAIRASISLPLYLMPIEFNGKTLIDGGVLNPVPIA”: the “soluble on expression in E. coli” value is recorded as “not soluble”.

Take “MRPLKVALVNIPLRVPGSDAWISVPPQGYGGIQWVVANLMDGLLELGHEVFLLGAPGSPAGRPGLTVVPAGEPEEIERWLRTADVDVVHDHSGGVIGPAGLPPGTAFISSHHFTTRPVNPVGCTYSSRAQRAHCGGGDDAPVIPIPVDPARYRSAADQVAKEDFLLFMGRVSPHKGALEAAAFAHACGRRLVLAGPAWEPEYFDEITRRYGSTVEPIGEVGGERRLDLLASAHAVLAMSQAVTGPWGGIWCEPGATVVSEAAVSGTPVVGTGNGCLAEIVPSVGEVVGYGTDFAPDEARRTLAGLPASDEVRRAAVRLWGHVTIAERYVEQYRRLLAGATWK”: the “soluble on expression in E. coli” value is on record as “soluble”.

“MKYPQVWDLDTFFKGGSQSSDFQHFVKETEELVDKLVASTSAKMTLAQLVNELVNVQKVMQRLRHGAAFVSCLKAQNVKDEHAFQWQGKLNELQAKLQNIWVELEATFGRMEDGEWQELLNHPQLSDITFSLNERRQAAAEKLAPEQEKLVAQLAVDGYHAWGEVYNQAVGRMEIPFEEDGETKRLSP”: the “soluble on expression in E. coli” value is given as “not soluble”.

On to “MISRTFLLLFFVFSISKCEVQLGCTSPPLPDANGLCPDGYTLITAGGCCPDSDVYIISATTTTTTTTQAPTTTASSGSCQDKVNPKTGVSDCPGMKAYCNNPAYVSVMKDQCPKTCGYCSSSATTAGTCQDKINPSTGRSDCPGMAAYCNNPVYHDVMKDQCPKTCGYC”, for which the “soluble on expression in E. coli” value is listed as “not soluble”.
